Biological target: HLA-A2 molecules on the surface of human T2 cells (Homo sapiens, UniProt P04439, D140Y/D185E/D98H/E176V/E277Q/G131W/G231S/I119V/I121R/I166T/I218V/L300P/L318F/N151K/N90K/P208A/P217A/Q86G/Q94H/R138H/R169H/T345S)
Test: Peptide stability assay (peptide/HLA-A2 binding stability post-Brefeldin A)

Sequence	HLA-A2 binding stability (CD138 peptide (FIG. 12), 0 hr, 2 hr, 4 hr, 6 hr, or overnight)	HLA-A2 binding stability (non-spliced XBP1 peptides (FIG. 2), 0, 2, 4, 6 and 18 hours post-Brefeldin A)
GLVGLIFAV (listed as Homo sapiens) [CD138 #2p, native CD138 peptide]	nearly equivalent to influenza virus protein matrix peptide58-66	–
NISPWILAV (listed as Homo sapiens) [XBP1184-192, native non-spliced XBP1 peptide]	–	significantly lower level of HLA-A2 binding stability as compared to the influenza virus protein matrix peptide58-66
